# Measurements published in patent US20050053985A1.
# Biological target: 3′-end processing factors
# Assay: immunoprecipitation under standard salt conditions
substance,measurement,value
tRNA endonuclease,percent of the 3′-end processing factors associated,< 1%
